According to article PMC6817822:

Biological target: PR55α regulatory subunit of PP2A (human (endogenous in CD18/HPAF)) (UniProt P63151)
Assay: co-IP; PR55α immunoprecipitated with anti-PR55α (2G9) from CD18/HPAF cells stably transduced with empty vector, Flag-YAP or Flag-YAP(5SA); immunoblotted with anti-PR55α (100C1) and anti-Flag (M2)

UniProt P63151, sequence (P63151 whole entry): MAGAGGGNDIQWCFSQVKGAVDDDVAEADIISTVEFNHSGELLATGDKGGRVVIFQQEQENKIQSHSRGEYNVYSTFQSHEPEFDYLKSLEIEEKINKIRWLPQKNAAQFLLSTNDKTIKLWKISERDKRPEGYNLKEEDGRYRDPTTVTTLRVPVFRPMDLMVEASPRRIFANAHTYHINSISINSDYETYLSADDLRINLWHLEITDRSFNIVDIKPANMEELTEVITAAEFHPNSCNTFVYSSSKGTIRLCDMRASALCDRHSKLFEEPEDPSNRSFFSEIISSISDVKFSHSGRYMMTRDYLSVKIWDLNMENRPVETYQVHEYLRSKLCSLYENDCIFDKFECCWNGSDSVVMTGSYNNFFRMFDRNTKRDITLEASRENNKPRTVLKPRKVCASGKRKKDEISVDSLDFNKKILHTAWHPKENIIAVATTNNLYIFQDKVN

fold of the level in the anti-PR55α immunoprecipitates against Flag-YAP(5SA): 28 fold
Substance: Flag-YAP(WT) (natural protein)
